From patent publication US20170002055A1, “Novel peptides and combination of peptides for use in immunotherapy against ovarian cancer and other cancers” (immatics biotechnologies GmbH, priority 2015, published 2017)

target: HLA-A*02:01 (Homo sapiens, UniProt P04439, D140Y/D185E/D98H/E176V/E277Q/G131W/G231S/I119V/I121R/I166T/I218V/L300P/L318F/N151K/N90K/P208A/P217A/Q86G/Q94H/R138H/R169H/T345S); assay: MHC binding assay (UV-ligand exchange, β2m ELISA, peptide exchange yield); details: MHC class I binding score; binding to HLA-A*02:01 ranged by peptide exchange yield (UV-ligand exchange, β2m ELISA)
Text: Candidate peptides for T cell based therapies according to the present invention were further tested for their MHC binding capacity (affinity). The individual peptide-MHC complexes were produced by UV-ligand exchange, where a UV-sensitive peptide is cleaved upon UV-irradiation, and exchanged with the peptide of interest as analyzed. Only peptide candidates that can effectively bind and stabilize the peptide-receptive MHC molecules prevent dissociation of the MHC complexes. To determine the yield of the exchange reaction, an ELISA was performed based on the detection of the light chain (β2m) of stabilized MHC complexes. The assay was performed as generally described in Rodenko et al. (Rodenko et al., 2006).
96 well MAXISorp plates (NUNC) were coated over night with 2 ug/ml streptavidin in PBS at room temperature, washed 4× and blocked for 1h at 37° C. in 2% BSA containing blocking buffer. […] Peptide-MHC monomers of the UV-exchange reaction were diluted 100 fold in blocking buffer. Samples were incubated for 1h at 37° C., washed four times, incubated with 2 ug/ml HRP conjugated anti-β2m for 1h at 37° C., washed again and detected with TMB solution that is stopped with […]. Absorption was measured at 450 nm. Candidate peptides that show a high exchange yield (preferably higher than 50%, most preferred higher than 75%) are generally preferred for a generation and production of antibodies or fragments thereof, and/or T cell receptors or fragments thereof, as they show sufficient avidity to the MHC molecules and prevent dissociation of the MHC complexes.

| Peptide exchange | Substance |
| --- | --- |
| “+++” (≧50 = +++) | 97 (SLINGSFLV; listed as Homo sapiens) [compound 97] |
| “+++” (≧50 = +++) | 98 (LIIDQADIYL; listed as Homo sapiens) [compound 98] |
| “++” (≧20% = ++) | 99 (ALVSKGLATV; listed as Homo sapiens) [compound 99] |
| “++++” (≧75% = ++++) | 100 (YLLSTNAQL; listed as Homo sapiens) [compound 100] |
| “+++” (≧50 = +++) | 101 (ILVGGGALATV; listed as Homo sapiens) [compound 101] |
| “+++” (≧50 = +++) | 106 (LLYDAVHIVSV; listed as Homo sapiens) [compound 106] |
| “++++” (≧75% = ++++) | 109 (IILSILEQA; listed as Homo sapiens) [compound 109] |
| “+++” (≧50 = +++) | 110 (FLSQVDFEL; listed as Homo sapiens) [compound 110] |
| “+++” (≧50 = +++) | 123 (NLWDLTDASVV; listed as Homo sapiens) [compound 123] |
| “++” (≧20% = ++) | 124 (ALYETELADA; listed as Homo sapiens) [compound 124] |
| “+++” (≧50 = +++) | 125 (VQIHQVAQV; listed as Homo sapiens) [compound 125] |
| “++” (≧20% = ++) | 128 (YLFDDPLSAV; listed as Homo sapiens) [compound 128] |
| “+++” (≧50 = +++) | 134 (YLQELIFSV; listed as Homo sapiens) [compound 134] |
| “+++” (≧50 = +++) | 136 (YLADPSNLFVV; listed as Homo sapiens) [compound 136] |
| “++++” (≧75% = ++++) | 137 (TLVLTLPTV; listed as Homo sapiens) [compound 137] |
| “+++” (≧50 = +++) | 138 (YQYPRAILSV; listed as Homo sapiens) [compound 138] |
| “++” (≧20% = ++) | 145 (FLATSGTLAGI; listed as Homo sapiens) [compound 145] |
| “+++” (≧50 = +++) | 147 (SLLEAVSFL; listed as Homo sapiens) [compound 147] |
| “++” (≧20% = ++) | 148 (ALNPEIVSV; listed as Homo sapiens) [compound 148] |
| “+++” (≧50 = +++) | 151 (KILQQLVTL; listed as Homo sapiens) [compound 151] |
| “+++” (≧50 = +++) | 161 (ALLEGVNTV; listed as Homo sapiens) [compound 161] |
| “+++” (≧50 = +++) | 162 (YQQAQVPSV; listed as Homo sapiens) [compound 162] |
| “+++” (≧50 = +++) | 165 (SLLDEIRAV; listed as Homo sapiens) [compound 165] |
| “+++” (≧50 = +++) | 167 (KVLEVTEEFGV; listed as Homo sapiens) [compound 167] |
| “+++” (≧50 = +++) | 173 (LLDSASAGLYL; listed as Homo sapiens) [compound 173] |
| “++” (≧20% = ++) | 176 (YLMEGSYNKVFL; listed as Homo sapiens) [compound 176] |

Further lines, the substance ahead of its results:

| Substance | Peptide exchange |
| --- | --- |
| 94 (YLIDIKTIAI; listed as Homo sapiens) [compound 94] | “++” (≧20% = ++) |
| 95 (SVIPQIQKV; listed as Homo sapiens) [compound 95] | “+++” (≧50 = +++) |
| 96 (YIFTDNPAAV; listed as Homo sapiens) [compound 96] | “+++” (≧50 = +++) |
| 102 (YLFESEGLVL; listed as Homo sapiens) [compound 102] | “+++” (≧50 = +++) |
| 103 (TLAEEVVAL; listed as Homo sapiens) [compound 103] | “+++” (≧50 = +++) |
| 104 (STMEQNFLL; listed as Homo sapiens) [compound 104] | “++++” (≧75% = ++++) |
| 107 (FLQPVDDTQHL; listed as Homo sapiens) [compound 107] | “+++” (≧50 = +++) |
| 111 (YVWGFYPAEV; listed as Homo sapiens) [compound 111] | “+++” (≧50 = +++) |
| 114 (SLVGEPILQNV; listed as Homo sapiens) [compound 114] | “++” (≧20% = ++) |
| 115 (AIAGAGILYGV; listed as Homo sapiens) [compound 115] | “++” (≧20% = ++) |
| 116 (YHIDEEVGF; listed as Homo sapiens) [compound 116] | “+” (≧10% = +) |
| 117 (ILPDGEDFLAV; listed as Homo sapiens) [compound 117] | “+++” (≧50 = +++) |
| 119 (FLYIGDIVSL; listed as Homo sapiens) [compound 119] | “++++” (≧75% = ++++) |
| 120 (ALLGIPLTLV; listed as Homo sapiens) [compound 120] | “+++” (≧50 = +++) |
| 121 (GVVDPRAISVL; listed as Homo sapiens) [compound 121] | “++” (≧20% = ++) |
| 122 (FLLAEDDIYL; listed as Homo sapiens) [compound 122] | “+++” (≧50 = +++) |
| 126 (VLAYFLPEA; listed as Homo sapiens) [compound 126] | “++++” (≧75% = ++++) |
| 127 (KIGDEPPKV; listed as Homo sapiens) [compound 127] | “++” (≧20% = ++) |
| 129 (GLLDGGVDILL; listed as Homo sapiens) [compound 129] | “+++” (≧50 = +++) |
| 130 (FLWNGEDSALL; listed as Homo sapiens) [compound 130] | “+++” (≧50 = +++) |
| 131 (FVPPVTVFPSL; listed as Homo sapiens) [compound 131] | “++” (≧20% = ++) |
| 132 (LLVEQPPLAGV; listed as Homo sapiens) [compound 132] | “+++” (≧50 = +++) |
| 133 (KVLSNIHTV; listed as Homo sapiens) [compound 133] | “++” (≧20% = ++) |

| Substance | Peptide exchange |
| --- | --- |
| 135 (ALSEVDFQL; listed as Homo sapiens) [compound 135] | “+++” (≧50 = +++) |
| 139 (SVMEVNSGIYRV; listed as Homo sapiens) [compound 139] | “+++” (≧50 = +++) |
| 140 (YMDAPKAAL; listed as Homo sapiens) [compound 140] | “++” (≧20% = ++) |
| 142 (FLFATPVFI; listed as Homo sapiens) [compound 142] | “+++” (≧50 = +++) |
| 144 (YIMEPSIFNTL; listed as Homo sapiens) [compound 144] | “+++” (≧50 = +++) |
| 146 (SLATAGDGLIEL; listed as Homo sapiens) [compound 146] | “++” (≧20% = ++) |
| 149 (NLLELFVQL; listed as Homo sapiens) [compound 149] | “+++” (≧50 = +++) |
| 153 (FLIANVLYL; listed as Homo sapiens) [compound 153] | “+” (≧10% = +) |
| 154 (ALDDGTPAL; listed as Homo sapiens) [compound 154] | “++” (≧20% = ++) |
| 155 (RVANLHFPSV; listed as Homo sapiens) [compound 155] | “+++” (≧50 = +++) |
| 158 (KLFDVDEDGYI; listed as Homo sapiens) [compound 158] | “+++” (≧50 = +++) |
| 159 (GLVGNPLPSV; listed as Homo sapiens) [compound 159] | “++++” (≧75% = ++++) |
| 160 (FLFDEEIEQI; listed as Homo sapiens) [compound 160] | “+++” (≧50 = +++) |
| 163 (ALDEMGDLLQL; listed as Homo sapiens) [compound 163] | “+++” (≧50 = +++) |
| 164 (ALLPQPKNLTV; listed as Homo sapiens) [compound 164] | “+++” (≧50 = +++) |
| 168 (KILDADIQL; listed as Homo sapiens) [compound 168] | “++++” (≧75% = ++++) |
| 169 (NLPEYLPFV; listed as Homo sapiens) [compound 169] | “+++” (≧50 = +++) |
| 170 (RLQETLSAA; listed as Homo sapiens) [compound 170] | “+++” (≧50 = +++) |
| 171 (LLLPLQILL; listed as Homo sapiens) [compound 171] | “+++” (≧50 = +++) |
| 172 (VLYSYTIITV; listed as Homo sapiens) [compound 172] | “++” (≧20% = ++) |
| 174 (ALAQYLITA; listed as Homo sapiens) [compound 174] | “+++” (≧50 = +++) |
| 175 (YLFENISQL; listed as Homo sapiens) [compound 175] | “+++” (≧50 = +++) |
